According to the supplement of paper PMC9732359:
± gives the uncertainty stated by the source.

Assay: protein stability index of a GFP-peptide fusion (yeast GPS) (PSI 1-4); higher = more stable; sorted into four equal gates, so the index is relative within each strain
Procedure, shortened: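 Tiled yeast protein peptides of 17 residues were each joined downstream of GFP, on plasmids that also express Cherry. The pooled library was maintained in yeast, and mid-log cultures in leucine-free medium were sorted into four equal gates on the GFP/Cherry ratio. Plasmids from every gate were amplified by PCR and sequenced on Illumina, with barcodes linking reads to strains. The protein stability index of a peptide is its gate-number-weighted read frequency summed over the gates.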

Sequence	protein stability index (doa10∆)	protein stability index (pdr5∆)	protein stability index (san1∆)	protein stability index (ubr1∆)
HNAKNGTLDKNSQTVSG [SNF2]	1.98 ± 0.13	2.42 ± 0.2	2.37 ± 0.2	2.96 ± 0.16
TPSLPIAPPVAPHDSEA [SNF5]	2.6 ± 0.07	2.48 ± 0.074	3.23 ± 0.064	2.52 ± 0.066
NSNPTSNVFGSNNSTTN [YJL041W/NSP1]	3.23 ± 0.079	3.43 ± 0.086	3.16 ± 0.055	3.46 ± 0.066
DVSIEELLREWLETYSE [IRR1]	3.38 ± 0.056	3.34 ± 0.075	3.56 ± 0.067	3.33 ± 0.047
QIPHFNNKILEKCKEIN [BRR2]	1.28 ± 0.11	2.23 ± 0.12	1.88 ± 0.22	2.02 ± 0.14
ADVSKLMYSITFHHHGR [SRB2]	2.82 ± 0.053	3.01 ± 0.056	2.79 ± 0.049	2.98 ± 0.04
NNSANNNAHSSDLGTVV [YMR153W/NUP53]	3.03 ± 0.15	2.62 ± 0.1	2.7 ± 0.091	2.28 ± 0.044
VEQYKFRETTHSKRELD [BRR2]	3.27 ± 0.072	2.96 ± 0.059	2.58 ± 0.054	2.73 ± 0.054
DFNQAKHEEIDTKNLYV [RPS10A]	3.38 ± 0.16	2.81 ± 0.12	3.29 ± 0.078	3.07 ± 0.074
PSYVHFKVQIIELLSYL [YML103C/NUP188]	1.41 ± 0.063	2.27 ± 0.065	1.8 ± 0.072	2.04 ± 0.05
NTGPSTGGLFGAKPAGS [YGL172W/NUP49]	3.43 ± 0.12	3.32 ± 0.11	2.67 ± 0.17	
KKQQAALTNELNELKAI [YIL149C/MLP2]	1.42 ± 0.052	1.86 ± 0.07	1.83 ± 0.092	1.55 ± 0.051
YQNMAFITAKDKYKLYP [YJR042W/NUP85]	2.9 ± 0.063	3.06 ± 0.11	3.16 ± 0.076	2.88 ± 0.077
KCNDGVVFAVEKLITSK [PRE10]			2.87 ± 0.22	
ADLDSLIIRNDSLSGAV [RPT3]	3.12 ± 0.077	3.06 ± 0.058	2.82 ± 0.049	3 ± 0.049
ISQPKSMSGRISAKDMG [BRR2]	3.1 ± 0.06	3.16 ± 0.055	3.08 ± 0.058	3.15 ± 0.046
DKLPQFVDENTFQRVCQ [RPN1]	3.04 ± 0.082	3.28 ± 0.12	3.15 ± 0.062	3.3 ± 0.078
KEKIQHELGINIDSLKF [BRR2]	3.19 ± 0.065	3.07 ± 0.053	3.05 ± 0.043	3.22 ± 0.06
LKNSIMSFIFPSYAERQ [YML031W/NDC1]	2.51 ± 0.075	2.54 ± 0.083	2.38 ± 0.079	2.4 ± 0.067
SKKDFKIIDNPKSFLKK [YMR129W/POM152]	3.05 ± 0.082	3.35 ± 0.095	3.08 ± 0.07	3.17 ± 0.092
NNYNSRIQLMNDFTTKL [MED1]	2.89 ± 0.075	2.85 ± 0.075	2.98 ± 0.058	3.08 ± 0.059
KIQQQQPGYADLEHKED [QCR6]	2.51 ± 0.062	2.71 ± 0.071	2.69 ± 0.069	2.69 ± 0.044
KEKESKKDSKPAFSFGI [YLR335W/NUP2]	2.96 ± 0.077	3.01 ± 0.068	3.19 ± 0.058	3.23 ± 0.059
NLQKIDKDSEELDSKTR [MED4]	2.73 ± 0.091	2.98 ± 0.071	2.94 ± 0.078	3.09 ± 0.053
KVATEKDFLKAVDKVIS [RPT1]	3.23 ± 0.074	3.26 ± 0.094	3.05 ± 0.11	3.26 ± 0.053

Sequence	protein stability index (doa10∆)	protein stability index (pdr5∆)	protein stability index (san1∆)	protein stability index (ubr1∆)
WDGVIPTPAIIKPKPLW [RPO21]	1.88 ± 0.099	2.08 ± 0.092	2.41 ± 0.096	2.06 ± 0.12
LERRELEGTRVSLEERT [SMC4]	3.4 ± 0.096	3.35 ± 0.082	3.29 ± 0.063	3.36 ± 0.1
VLRRLLAKYRDAGKIDK [RPL19A]	3.29 ± 0.18	3.37 ± 0.15		3.61 ± 0.093
DFAQKEINGDDDEDEDD [PRE10]	3.09 ± 0.11	3.19 ± 0.071	3.22 ± 0.082	3.28 ± 0.063
EILGTAQSVGCRVDFKN [RPL12A]	2.12 ± 0.06	2.25 ± 0.06	2.46 ± 0.11	2.94 ± 0.055
AFKKIDAITVKDVKAWA [COR1]	2.06 ± 0.076	1.91 ± 0.072	1.83 ± 0.14	1.9 ± 0.039
SLADNEIALKGLESLLN [YCS4]	2.81 ± 0.056	2.5 ± 0.067	2.68 ± 0.075	2.94 ± 0.073
PGLEFLDDTTIPVGLMA [MCD1]	1.99 ± 0.057	2.71 ± 0.059	3.03 ± 0.041	2.52 ± 0.055
LYKEFFNEKFPSLIQEE [NUT1]	3 ± 0.13	3.19 ± 0.13	3.06 ± 0.059	3.2 ± 0.12
LPYNWDALEMQWRYLYD [ARP7]	2.1 ± 0.065	2.1 ± 0.073	2.44 ± 0.11	2.19 ± 0.068
DKKLNLNLPLQFSLPNG [SNF12]	3.04 ± 0.085	3.02 ± 0.079	2.62 ± 0.074	2.7 ± 0.075
WVIRKQRRTNNSGVGSA [MED6]	2.48 ± 0.27	2.36 ± 0.14	2.58 ± 0.11	2.8 ± 0.14
DLALPPPPPPPPGYEIE [PRP8]	3.08 ± 0.088	2.98 ± 0.11	2.54 ± 0.14	2.95 ± 0.073
NDNENIVNNDLPTTVVS [MED2]	2.55 ± 0.053	2.8 ± 0.05	2.63 ± 0.042	2.89 ± 0.039
LTMANLPSWSLGKWYSK [ARP7]	3.17 ± 0.15	3.28 ± 0.11	2.88 ± 0.17	2.85 ± 0.19
ILYGPPGTGKTLLARAV [RPT6]	3.4 ± 0.16	3.09 ± 0.23	3.35 ± 0.16	2.95 ± 0.21
VIQQDKYQKALHYLKKF [SRP72]	1.61 ± 0.098	1.26 ± 0.079	1.2 ± 0.14	2.15 ± 0.1
GASGVDDFQNFFDPKPF [SWI1]	2.65 ± 0.065	2.68 ± 0.064	2.92 ± 0.092	3.11 ± 0.046
SQVYAIRQAIAKGLVAY [RPS16A]	2.22 ± 0.069	2.35 ± 0.071	2.27 ± 0.1	2.42 ± 0.055
GNPLLYDGVERVSLQDI [QCR2]	1.73 ± 0.23	2.18 ± 0.17	2.03 ± 0.17	2.19 ± 0.17
ETIENVKLQMIKFGGLI [ECM29]	3.53 ± 0.1	3.37 ± 0.17	3.18 ± 0.11	3.26 ± 0.07
GFVIQDRETALDFIGRR [RPB2]	3.02 ± 0.075	2.92 ± 0.13	3.34 ± 0.077	3 ± 0.11
TPQSKGFVRNSFFSGLS [RPO31]	3.01 ± 0.089	2.79 ± 0.074	3.13 ± 0.089	2.86 ± 0.046
LGSDSSDGHNSEKKDTD [SRB4]	1.68 ± 0.11	2.02 ± 0.2	1.59 ± 0.27	
